We go through 1 molecule from publication PMC3641580 (Cell, 2013).

This assay has as its target hMutSα (hMSH2-hMSH6), wild type (human, UniProt P43246 1-934; P52701 1-1360). Description: pull-down.

ARKSAPATGGVKKPHRYRP (dimethyl-lysine at K36; biotin (position not given)) [biotin-labeled histone H3 peptide with di-methylated K36]: the binding result was “binds”.
